According to doi:10.1101/2023.03.27.534461 (bioRxiv, 2023):

Biological target: the molecule itself
Assay: cryo-EM structure; 100 nM unmodified nucleosome with 10 μM Bre1-Bre1-Rad6 fusion protein, 20 mM HEPES pH 7.5, 50 mM NaCl, 1 mM DTT, room temperature 30 min; cross-linked with glutaraldehyde, then Superdex 200; three states resolved

B1: Bre1 591–700 (domain or fragment, yeast, UniProt Q07457 591-700, looked up)
chain: KLNDTEIELKHFKQKASHLESKCEKLHDTLFRGNNKNKGSSDEALVEELANFRTLVYCSLCSKNWKNMAIKTCGHVFCENCCKERLAARMRKCPTCNKAFSSNDLLTVHL
notes: Bre1, yeast E3 ubiquitin ligase, residues 591-700: coiled coil that mediates dimerization and RING domain; In the structure the two copies of Bre1(591-700) stood on one chain of the fusion m1, joined by a (GGS)4 linker; written here as a molecule of its own for the pairs Bre1 with H2A and Bre1 with Bre1; also called Bre1-A; Bre1-B; source: E. coli BL21(DE3)Rosetta2, purified, as part of the …
binding result: binds
